{"source": "paper PMC8585765", "about": "“An OsKala3, R2R3 MYB TF, Is a Common Key Player for Black Rice Pericarp as Main Partner of an OsKala4, bHLH TF” (Frontiers in Plant Science, 2021)", "binders": {"B1": {"name": "OsKala3 (natural protein, rice (Oryza sativa), UniProt O23891 1-321, looked up)", "chain": "MGRKPCCSKEGLNRGAWTAMEDDILVSYIAKHGEGKWGALPKRAGLKRCGKSCRLRWLNYLRPGIKRGNISGDEEELILRLHTLLGNRWSLIAGRLPGRTDNEIKNYWNSTLSKRVAMQRTAAATSMPAAATTSSNADAAGAAARRRRSPEPRTVVVSPIRTKALRCNNNSSSGIVVVQQAGACSHGGRPPESGAPGDAAADKVATPQAVQQQQQQELAGAEDDDDLPVPAVCIDLDLDDIELGGLDGFLISPWRGGGHDDGNAAAGAVPNLPMPIGYKLGGAGGGGEAGAVDLEALLGQLEAEEDDDGDHHHHHHHHHHQ"}}, "biological_target": "T1, OsKala4 (rice (Oryza sativa), UniProt Q948Y2 1-451)", "T1 sequence (looked up)": "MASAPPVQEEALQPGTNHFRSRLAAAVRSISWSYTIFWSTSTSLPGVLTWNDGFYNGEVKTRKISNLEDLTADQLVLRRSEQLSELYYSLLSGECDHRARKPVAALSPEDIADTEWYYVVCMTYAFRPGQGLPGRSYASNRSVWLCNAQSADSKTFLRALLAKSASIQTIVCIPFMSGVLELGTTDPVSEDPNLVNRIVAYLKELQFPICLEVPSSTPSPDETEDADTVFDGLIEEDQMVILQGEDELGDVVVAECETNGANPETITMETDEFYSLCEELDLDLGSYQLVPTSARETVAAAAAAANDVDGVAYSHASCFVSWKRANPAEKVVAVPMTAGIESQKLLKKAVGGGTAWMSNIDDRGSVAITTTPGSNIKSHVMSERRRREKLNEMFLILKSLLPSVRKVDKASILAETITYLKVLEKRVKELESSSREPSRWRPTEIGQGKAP", "assay": "cell-based or functional assay"}
{"binder": "B1", "values": [{"measurement": "dual-luciferase reporter assay in transiently transfected rice protoplasts; proOsCHI:LUC reporter; co-transfection of OsKala3 and OsKala4 compared to OsKala3 alone", "result": 4, "unit": "fold"}]}
